Molecular target: cytochrome c
Assay: SEC

Question: How did the stoichiometry N turn out when cytochrome c (natural protein) was run?
Answer: 2
